Earlier results on 1 substance are cited in publication PMC3439503.

This data set concerns the target dystrophin N-ABD N-ABD (Homo sapiens) (UniProt P11532).

Consider “dystrophin N-ABD N-ABD (from UniProt P11532)”, for which the Kd (in general, a measure of binding affinity in units of concentration) was 4 µM.
